Data published in paper PMC11658694, “Acetylation of the yeast Hsp40 chaperone protein Ydj1 fine-tunes proteostasis and translational fidelity” (PLOS Genetics, 2024).
Positions count from the first letter of the chain named.

B1: His-tagged Ydj1 6KR (natural protein, S. cerevisiae (budding yeast), UniProt P25491 1-409, looked up)
chain: MVKETKFYDILGVPVTATDVEIRRAYRKCALRYHPDRNPSEEAAERFREASAAYEILSDPEKRDIYDQFGEDGLSGAGGAGGFPGGGFGFGDDIFSQFFGAGGAQRPRGPQRGKDIKHEISASLEELYKGRTAKLALNKQILCKECEGRGGKKGAVKKCTSCNGQGIKFVTRQMGPMIQRFQTECDVCHGTGDIIDPKDRCKSCNGKKVENERKILEVHVEPGMKDGQRIVFKGEADQAPDVIPGDVVFIVSERPHKSFKRDGDDLVYEAEIDLLTAIAGGEFALEHVSGDWLKVGIVPGEVIAPGMRKVIEGKGMPIPKYGGYGNLIIKFTIKFPENHFTSEENLKKLEEILPPRIVPAIPKKATVDECVLADFDPAKYNRTRASRGGANYDSDEEEQGGEGVQCASQ
modifications: biotin (labelled with a 1.5-fold excess of NHS-PEG4-Biotin, for BLI)
B2: His-tagged Ydj1 K23Q (natural protein, S. cerevisiae (budding yeast), UniProt P25491 1-409, looked up)
chain: B1 chain with R23Q, R24K, R32K, R37K, R46K, R48K
modifications: biotin (labelled with a 1.5-fold excess of NHS-PEG4-Biotin, for BLI)
notes: Ydj1, yeast Hsp40; Tag end: see m28; source: E. coli Rosetta (DE3), purified (Ni-sepharose, Superdex 200); not shown: His6, N-terminal, kept
B3: His-tagged Ydj1 K23R (natural protein, S. cerevisiae (budding yeast), UniProt P25491 1-409, looked up)
chain: B1 chain with R24K, R32K, R37K, R46K, R48K
modifications: biotin (labelled with a 1.5-fold excess of NHS-PEG4-Biotin, for BLI)
notes: as for B2
B4: His-tagged Ydj1 wild-type (natural protein, S. cerevisiae (budding yeast), UniProt P25491 1-409, looked up)
chain: B1 chain with R23K, R24K, R32K, R37K, R46K, R48K
modifications: biotin (labelled with a 1.5-fold excess of NHS-PEG4-Biotin, for BLI)
notes: Ydj1, yeast Hsp40; YDJ1 gene amplified from yeast genomic DNA, in pRSETA; Methods: 6xHIS-TEV-Ydj1 fusion; A TEV site lies between tag and Ydj1; A fragment lacking the J-domain co-purifies; also called HIS-Ydj1; Ydj1-biotin; source: E. coli Rosetta (DE3), purified (Ni-sepharose, Superdex 200); not shown: His6, N-terminal, kept
B5: His-tagged Ydj1 K37R (natural protein, S. cerevisiae (budding yeast), UniProt P25491 1-409, looked up)
chain: B1 chain with R23K, R24K, R32K, R46K, R48K
modifications: biotin (labelled with a 1.5-fold excess of NHS-PEG4-Biotin, for BLI)

What was measured:
Ssa1 (purified) [1] = target: T1, Ssa1 (purified) (S. cerevisiae (budding yeast), UniProt P10591 1-642); assay: cell-based or functional assay
Ssa1 (purified) [2] = target: T1, Ssa1 (purified); assay: BLI; biotinylated Ydj1 wild-type or mutant (5 μg/ml, equivalent loading) on streptavidin biosensors, Ssa1 (1 μM) in solution; Octet R4, 23°C; 25 mM Hepes pH 7.5, 50 mM KCl, 2 mM DTT, 5 mM MgCl2, 0.5 mM ATP, 0.02% Tween-20; non-specific binding subtracted; conditions: both partners purified

T1 sequence (P10591 whole entry): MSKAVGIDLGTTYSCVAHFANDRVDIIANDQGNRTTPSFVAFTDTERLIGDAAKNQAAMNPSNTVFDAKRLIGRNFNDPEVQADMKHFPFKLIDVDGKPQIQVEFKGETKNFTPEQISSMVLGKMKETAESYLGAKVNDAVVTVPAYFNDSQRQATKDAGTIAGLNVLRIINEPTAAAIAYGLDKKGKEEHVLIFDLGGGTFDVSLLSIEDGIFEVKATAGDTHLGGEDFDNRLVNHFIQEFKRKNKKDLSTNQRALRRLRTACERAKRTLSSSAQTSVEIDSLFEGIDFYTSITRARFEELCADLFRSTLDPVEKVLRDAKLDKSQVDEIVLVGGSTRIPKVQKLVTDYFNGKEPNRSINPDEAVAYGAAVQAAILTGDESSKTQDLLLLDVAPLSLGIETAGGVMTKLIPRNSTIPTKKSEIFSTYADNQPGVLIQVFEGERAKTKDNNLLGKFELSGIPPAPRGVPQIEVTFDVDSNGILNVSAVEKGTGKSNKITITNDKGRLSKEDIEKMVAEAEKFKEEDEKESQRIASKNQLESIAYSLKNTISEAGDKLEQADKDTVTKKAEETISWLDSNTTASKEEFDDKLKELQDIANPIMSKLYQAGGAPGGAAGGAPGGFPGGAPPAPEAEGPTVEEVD

Row | Binder | reactivation of chemically denatured luciferase (3 μM Ssa1, 0.3 μM Ydj1), against wild-type (Ssa1 (purified) [1]) | binding result (Ssa1 (purified) [2])
1 | B1 | ~2 fold | 
2 | B2 |  | binds
3 | B3 |  | binds
4 | B4 |  | binds
5 | B5 | ~2 fold | 
